1 molecule from publication PMC12851022 (2025) can be followed below.

Test [1] deals with T1, VHL (Homo sapiens, UniProt P40337). Briefly: FRET.
For test [2], the target named is T1, VHL. Put plainly: Alpha assay.

T1 sequence (P40337 whole entry): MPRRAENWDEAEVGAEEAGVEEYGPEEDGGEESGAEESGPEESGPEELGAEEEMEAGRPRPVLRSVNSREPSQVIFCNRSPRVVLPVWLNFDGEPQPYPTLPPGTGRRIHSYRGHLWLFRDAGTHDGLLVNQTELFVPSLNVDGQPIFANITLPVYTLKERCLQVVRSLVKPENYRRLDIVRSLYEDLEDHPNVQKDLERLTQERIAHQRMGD

B1: USP39 (protein)
chain: MSGRSKRESRGSTRGKRESESRGSSGRVKRERDREREPEAASSRGSPVRVKREFEPASAREAPASVVPFVRVKREREVDEDSEPEREVRAKNGRVDSEDRRSRHCPYLDTINRSVLDFDFEKLCSISLSHINAYACLVCGKYFQGRGLKSHAYIHSVQFSHHVFLNLHTLKFYCLPDNYEIIDSSLEDITYVLKPTFTKQQIANLDKQAKLSRAYDGTTYLPGIVGLNNIKANDYANAVLQALSNVPPLRNYFLEEDNYKNIKRPPGDIMFLLVQRFGELMRKLWNPRNFKAHVSPHEMLQAVVLCSKKTFQITKQGDGVDFLSWFLNALHSALGGTKKKKKTIVTDVFQGSMRIFTKKLPHPDLPAEEKEQLLHNDEYQETMVESTFMYLTLDLPTAPLYKDEKEQLIIPQVPLFNILAKFNGITEKEYKTYKENFLKRFQLTKLPPYLIFCIKRFTKNNFFVEKNPTIVNFPITNVDLREYLSEEVQAVHKNTTYDLIANIVHDGKPSEGSYRIHVLHHGTGKWYELQDLQVTDILPQMITLSEAYIQIWKRRDNDETNQQGA
modifications: USP39_PROTAC_V1
In the case of B1, the Kd with VHL [1] is 12 nM; with VHL [2], 232 nM.

Usually Kd stands for the constant that tells how readily two partners part at equilibrium. Low values mean tighter binding, high ones weaker binding.
